B1: Hsc-6 (Hsc70-derived peptide) (peptide)
peptide: TKQTQTFTTYSDNQPGVLIQVYE
notes: Hsc70 residues 422–444; source: synthetic peptide; bought: GL Biochem Ltd
B2: Hsc-10 (Hsc70-derived peptide) (peptide)
peptide: GILNVSAVDKSTGKENKITITN
notes: Hsc70 residues 484–505; source: synthetic peptide; bought: GL Biochem Ltd

Molecular target: α-Synuclein fibrils (preformed fibrils of recombinant human wild-type αSyn) (human, UniProt P37840 1-140)
Assay: co-sedimentation; as a4 with a range of peptide concentrations (0–200 μM) and αSyn fibrils (100 μM); bound peptide by reversed phase chromatography
Conditions: both partners purified

| Binder | Kd |
| --- | --- |
| B1 | > 100 µM |
| B2 | > 100 µM |

Source: PMC7425896, “Polypeptides derived from α-Synuclein binding partners to prevent α-Synuclein fibrils interaction with and take-up by cells” (PLoS ONE, 2020)
